In patent publication US20110200528A1 (GOVERNMENT OF THE UNITED STATES OF AMERICA, published 2011):
OG = Oregon Green 488 (6-isomer carboxylic acid) on Lys side chain

B1: low temperature sensitive liposomes targeted with 5 mol % DSPE-PEG-cNGR (peptide)
peptide: KNGRE
modifications: cyclized cKNGRE; conjugated to DSPE-PEG2000CH2COOH (DSPE-PEG-cNGR conjugate 7) and built into a liposome (DPPC:MSPC:DSPE-PEG-cNGR 86.3:9.7:5)
B2: cyclic cK(OG)NGRE (SEQ ID NO:2) (peptide)
peptide: cyclo(K(OG)NGRE)
modifications: also: Glu side chain coupled to Rink amide resin (side-chain amide)
notes: also called compound 6; NGR-OG agent
B3: linear form of an NGR-containing peptide (SEQ ID NO:4) (peptide)
peptide: KNGRE
notes: also called linear NGR peptide; free linear NGR peptide

Key:
[1] = biological target: aminopeptidase N isoform CD13 (APN/CD13) on HT-1080 human fibrosarcoma cells (human) (UniProt P15144); test: flow cytometry on HT-1080 cells
Sequence of aminopeptidase N isoform CD13 (APN/CD13) on HT-1080 human fibrosarcoma cells (human) (P15144 2-967): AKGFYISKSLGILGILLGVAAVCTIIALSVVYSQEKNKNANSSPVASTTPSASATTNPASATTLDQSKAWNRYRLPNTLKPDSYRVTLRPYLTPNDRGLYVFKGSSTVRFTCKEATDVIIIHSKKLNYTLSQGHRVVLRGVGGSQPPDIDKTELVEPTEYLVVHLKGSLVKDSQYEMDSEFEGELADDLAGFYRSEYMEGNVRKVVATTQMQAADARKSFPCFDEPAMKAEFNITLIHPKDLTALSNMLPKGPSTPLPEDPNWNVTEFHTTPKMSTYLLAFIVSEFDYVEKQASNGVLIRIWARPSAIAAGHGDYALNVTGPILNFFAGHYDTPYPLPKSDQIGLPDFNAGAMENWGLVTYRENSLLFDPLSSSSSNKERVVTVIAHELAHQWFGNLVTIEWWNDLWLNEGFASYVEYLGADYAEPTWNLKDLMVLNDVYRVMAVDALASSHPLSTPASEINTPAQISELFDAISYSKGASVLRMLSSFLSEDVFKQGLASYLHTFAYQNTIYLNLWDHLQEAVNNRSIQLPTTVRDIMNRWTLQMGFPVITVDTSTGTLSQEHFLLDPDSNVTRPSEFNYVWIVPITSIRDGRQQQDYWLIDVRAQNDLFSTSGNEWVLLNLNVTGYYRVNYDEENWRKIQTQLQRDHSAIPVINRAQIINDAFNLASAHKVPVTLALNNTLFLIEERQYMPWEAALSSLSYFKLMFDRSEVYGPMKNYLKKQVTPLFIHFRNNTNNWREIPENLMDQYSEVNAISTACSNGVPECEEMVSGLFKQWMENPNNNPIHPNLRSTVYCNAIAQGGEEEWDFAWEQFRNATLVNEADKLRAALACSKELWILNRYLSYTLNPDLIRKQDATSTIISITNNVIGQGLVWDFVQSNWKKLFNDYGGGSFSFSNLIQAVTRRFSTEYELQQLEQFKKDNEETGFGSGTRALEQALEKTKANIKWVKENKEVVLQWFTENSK

[2] = biological target: aminopeptidase N isoform CD13 (APN/CD13) on HT-1080 human fibrosarcoma cells (human) (UniProt P15144); test: flow cytometry on CD13-positive HT-1080 cells; reference: liposome with a linear peptide
[3] = biological target: T1, aminopeptidase N isoform CD13 (APN/CD13) on HT-1080 human fibrosarcoma cells (human, UniProt P15144 2-967); test: flow cytometry on CD13-positive HT-1080 cells
T1 construct: whole, on cells; also called CD13/APN marker
T1 sequence (P15144 2-967): as above
Protocol: To determine the half maximal effective concentration (EC₅₀) of cK(OG)NGRE (SEQ ID NO:2) and low temperature sensitive liposomes targeted with 5 mol % DSPE-PEG-cNGR, flow cytometry was performed according to standard procedures with HT-1080 cells. Approximately 94% of the HT-1080 cells were positive for the WM15 antibody indicating the presence of CD13 on these cells.

Row | EC50 [3] | other results | Molecule
1 |  | percent of cells positive [1]: 94% | Anti-CD13 monoclonal antibody (WM15, Alexa Fluor 488-conjugated)
2 |  | fold lower binding concentration against the liposome with a linear peptide [2]: 3.5 fold | B1
3 | 61 µM |  | B2
4 | 220 µM |  | B3
